Measured values published in patent US11285285B2, “Systems and methods comprising a droplet delivery device and a breathing assist device for therapeutic treatment” (PNEUMA RESPIRATORY, INC., priority 2016, dated 2022).
Values belong to the substance of their own block, whether it stands above or below them.

Columns and labels:
Format in all cases: physicochemical
[1] = Anderson Cascade Impactor testing of Albuterol sulfate aerosol from the droplet delivery device (Example B); details: Albuterol 0.5%, 28.3 lpm, 10 actuations
[2] = Insulin stability after aerosol generation, size exclusion chromatography (SEC)
Excerpt: Size Exclusion Chromatography (SEC): Alternately, to determine the stability of active agent after droplet generation, the generated stream of droplets including the active agent may be collected and SEC-HPLIC may be employed to monitor for any changes in large molecule aggregation and protein fragment content. Soluble protein aggregates and protein fragment content may be calculated by comparing respective peak area under the SEC-HPLC curve of dispensed protein solutions with controls (solutions remaining in the device reservoir).
Drug solutions for testing include Enbrel, (ENBREL® single-use prefilled syringes in 25 mg (0.51 mL of a 50 mg/mL solution of etanercept), and insulin, (Humalog, 200 units/ml, 3 ml kwikpens)
To calculate and compare effects of droplet generation through an ejector mechanism of the disclosure, the total area under the curve of the UV signal at 280 nm versus elution time for controls is compared with the aerosolized samples, which is set to 100%.
Aerosol collection and SEC is performed in a similar fashion as for the Enbrel analysis and aerosol collection.
Fifty microliters of the collected aerosol spray is injected onto the SEC column for analysis, while 50 mcl of the Kwikpen insulin solution is injected onto the SEC column for control samples.

[3] = Gel electrophoresis of active agent after droplet generation
Excerpt: Gel Electrophoresis: To determine the stability of active agent after droplet generation, the generated stream of droplets including the active agent is collected and the molecular weight of the active agent is verified using gel electrophoresis.

[4] = Enbrel stability after aerosol generation, size exclusion chromatography (SEC)
Excerpt: Size Exclusion Chromatography (SEC): Alternately, to determine the stability of active agent after droplet generation, the generated stream of droplets including the active agent may be collected and […] may be employed to monitor for any changes in large molecule aggregation and protein fragment content. Soluble protein aggregates and protein fragment content may be calculated by comparing respective peak area under the SEC-HPLC curve of dispensed protein solutions with controls (solutions remaining in the device reservoir). Drug solutions for testing include Enbrel, (ENBREL® single-use prefilled syringes in 25 mg (0.51 mL of a 50 mg/mL solution of etanercept), and insulin, (Humalog, 200 units/ml, 3 ml […] is performed with a YarraTM 3 um SEC-2000 LC column 300×7.8 mm, SecurityGuard cartridge kit and SecurityGuard cartridges GFC-2000, 4×3 mm ID. Fifty microliters of Enbrel from the syringe (ENBREL® single-use prefilled syringes in 25 mg/0.51 mL of a 50 mg/mL solution of etanercept) is diluted (4:1) (4 parts, 200 mcl of the mobile phase buffer solution to 1 part, 50 mcl Enbrel from syringe). Fifty microliter of the diluted Enbrel is injected and separation was performed at a flow rate of 1.0 ml/min. The mobile phase buffer system included a PHOS. BUFF. SALINE. […] UV detection is performed at 280 nm. […] An ampule/cartridge is filled with either 0.20 ml of Enbrel® (50 mg/ml) diluted 4:1 (10 mg/ml)(4 parts (200 mcl) of PBS and 0.025% NaN3 and 1 part (50 mcl of Enbrel solution from the syringe). After 20 actuations and aerosolization, about 150 mcl of the aerosolized Enbrel solution is recovered and collected in the polypropylene tube located below the ejector mechanism. The control consists of the diluted Enbrel solution, 50 mcl of which is injected into the SEC column for analysis.

[5] = average of Aerosolized S1 and S2
[6] = control (diluted Enbrel 10 mg/ml, not aerosolized), SEC UV 280 nm

Fine Particles (<0.4 um) ([1]; Anderson Cascade): 31.0 µg
Fine Particule Fraction (<0.4 um) ([1]; Anderson Cascade): 3.5%
droplets of an average diameter of less than about 4 μm ([1]; Anderson Cascade): over 70%
Cum. % < ([1]; FILTER): 0.00%
Cum. % > ([1]; FILTER): 100.00%
Substance: Albuterol sulfate

Substance: Insulin: insulin, Humalog, 200 units/ml, 3 ml kwikpens
ejected dose that is structurally unchanged ([2]; aerosolized with test device): 97.5%
Peak 3 area, Avg. [2, 5]: 2.4905
Peak Area %, Peak 3 ([2]; control (Kwikpen insulin solution 200 U/ml, not aerosolized), SEC): 0%
ejected dose that forms a fragment ([2]; fragment which elutes at ~25 minutes): 2.5%

Substance: adalimumab
change in the electrophoretic mobility (molecular weight) of post-aerosol active agent versus control [3]: negligible change in the electrophoretic mobility

Substance: bevacizumab
change in the electrophoretic mobility (molecular weight) of post-aerosol active agent versus control [3]: negligible change in the electrophoretic mobility

Substance: etanercept [Enbrel]
Peak 4 area, Avg. [4, 5]: 0.3545
Peak 5 area, Avg. [4, 5]: 4.2755
Peak Area %, Peak 4 [4, 6]: 0%
Peak Area %, Peak 5 [4, 6]: 0%
dose that leads to formation of molecular fragments ([4]; fragments with elution times of 13 and 25 minutes): 4.6%
change in the electrophoretic mobility (molecular weight) of post-aerosol active agent versus control [3]: negligible change in the electrophoretic mobility
